Measured values from paper PMC11796124.

Molecular target: DP71L-Flag (Flag-tagged ASFV DP71L), expressed in HEK293T cells
Details: parent: est. 0.52; read off a plot

Substance | response (Relative IntDEN to β-actin)
STING-Strep (Strep-tagged STING) (from UniProt Q86WV6) L374A | 0.14
STING-Strep (Strep-tagged STING) (from UniProt Q86WV6) R375A | 0.04
